The text below walks through data of article PMC6224480, “Insights into Kinesin-1 Activation from the Crystal Structure of KLC2 Bound to JIP3” (Structure(London, England:1993), 2018).

The target of test [1] is JIP3^LZ (leucine zipper domain of murine JIP3 isoform A, residues 417-487) (murine). In words: SEC-MALS; JIP3^LZ on a WTC-030S5 column; 25 mM HEPES pH 7.5, 0.1 M NaCl, 1 mM TCEP; 1 ml/min. A general note: Size exclusion chromatography separates by hydrodynamic size, large species first.
In a further test the target is GST3C-JIP3^LZ (murine). In words: ITC; KLC2^TPR as titrant, GST3C-JIP3^LZ in the cell; 25°C; 0.5 M NaCl, 25 mM HEPES, 5 mM MgCl2, 1 mM TCEP, pH 7.5; four experiments globally fitted with a two-stage sequential model (A + B + B → AB + B → ABB); macroscopic association constants. In general terms: ITC needs no label: the signal is the heat of the interaction.

Chain of KLC2^TPR (murine kinesin light chain 2 TPR domain, residues 191-480) (O88448 190-479): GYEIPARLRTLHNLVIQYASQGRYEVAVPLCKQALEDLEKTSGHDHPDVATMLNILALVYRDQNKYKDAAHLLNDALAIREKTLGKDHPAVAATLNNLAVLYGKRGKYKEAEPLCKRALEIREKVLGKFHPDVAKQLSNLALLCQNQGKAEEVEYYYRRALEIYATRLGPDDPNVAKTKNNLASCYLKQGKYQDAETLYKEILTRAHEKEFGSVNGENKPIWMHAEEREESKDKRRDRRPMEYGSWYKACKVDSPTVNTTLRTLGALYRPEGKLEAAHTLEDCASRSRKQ

One may read the stoichiometry N as a count of units in the complex or per binding partner. In the case of “JIP3^LZ (leucine zipper domain of murine JIP3 isoform A, residues 417-487) (domain or fragment)”, the stoichiometry N in test [1] was determined as 2.
Take “KLC2^TPR (murine kinesin light chain 2 TPR domain, residues 191-480) (from UniProt O88448 190-479) (domain or fragment)”: in the test with GST3C-JIP3^LZ (murine), the K (macroscopic association constant), stage A + B + B → BA + B was determined as 0.132 µM⁻¹; the K (macroscopic association constant), stage BA + B → BAB amounted to 0.132 µM⁻¹; the dH, stage A + B + B → BA + B is -18.8 kcal/mol; the dH, stage BA + B → BAB amounted to 0.952 kcal/mol.
